Experiments:
[1] = molecular target: GST-XIP (D25A, D70A)
[2] = molecular target: GST-XIP (D58A)
[3] = molecular target: GST [GST: P08515]
[4] = molecular target: GST-XIP (D25A, D70A, D80A)
[5] = molecular target: GST-XIP (D70A)
[6] = molecular target: GST-XIP (D39A) [GST: P08515]
[7] = molecular target: GST-XIP (D25A)

B1: caspase-1 (Calbiochem, Co., Ltd.) (protein)
chain: NPAMPTSSGSEGNVKLCSLEEAQRIWKQKSAEIYPIMDKSSRTRLALIICNEEFDSIPRRTGAEVDITGMTMLLQNLGYSVDVKKNLTASDMTTELEAFAHRPEHKTSDSTFLVFMSHGIREGICGKKHSEQVPDILQLNAIFNMLNTKNCPSLKDKPKVIIIQACRGDSPGVVWFKDSVGVSGNLSLPTTEEFEDDAIKKAHIEKDFIAFCSSTPDNVSWRHPTMGSVFIGRLIEHMQEYACSCDVEEIFRKVRFSFEQPDGRAQMPTTERVTLTRCFYLFPGH
- caspase-1 protease assay (SDS-PAGE, western blotting with anti-GST antibody) [1]: When using GST-XIP (D25A, D70A) as a substrate, a new fragment other than the aforementioned fragments was detected
- caspase-1 protease assay (SDS-PAGE, western blotting with anti-GST antibody) [2]: fragment located at the higher molecular weight side was detected; fragment located at the lower molecular weight side was detected when using GST-XIP (D58A)
- caspase-1 protease assay (SDS-PAGE, western blotting with anti-GST antibody) [3]: GST was not cleaved by caspase-1
- caspase-1 protease assay (SDS-PAGE, western blotting with anti-GST antibody) [4]: This fragment was not detected when using GST-XIP (D25A, D70A, D80A) as a substrate
- caspase-1 protease assay (SDS-PAGE, western blotting with anti-GST antibody) [5]: fragment located at the higher molecular weight side not detected when using GST-XIP (D70A); fragment located at the lower molecular weight side was detected
- caspase-1 protease assay (SDS-PAGE, western blotting with anti-GST antibody) [6]: fragment located at the higher molecular weight side was detected; fragment located at the lower molecular weight side was detected when using GST-XIP (D39A)
- caspase-1 protease assay (SDS-PAGE, western blotting with anti-GST antibody) [7]: fragment located at the higher molecular weight side was detected; fragment located at the lower molecular weight side not detected when using GST-XIP (D25A)

Reference: US20060217299
